B1: Pyrococcus furiosus MCM AAA+ ATPase domain, crystallized construct (aa 263-361/729-966) (domain or fragment, UniProt Q8U3I4 263-966, looked up)
chain: PEEEQIIKELAKRKDIVDAIVDSIAPAIYGYKEVKKGIALALFGGVSRKLPDGTRLRGDIHVLLVGDPGVAKSQILRYVANLAPRAIYTSGKSSSAAGLTAAAVRDEFTGGWVLEAGALVLADGGYALIDELDKMSDRDRSVIHEALEQQTISISKAGITATLNARTTVIAAANPKQGRFNRMKNPFEQIDLPPTLLSRFDLIFVLIDEPDDKIDSEVARHILRVRRGESEVVAPKIPHEILRKYIAYARKNIHPVISEEAMEEIEKYYVRMRKSVKKTKGEEEGIPPIPITARQLEALIRLSEAHARMRLSPIVTREDAREAIKLMEYTLKQIAMD
notes: PfMCM AAA+ domain, Pyrococcus furiosus MCM, aa 263-361/729-966 (intein aa 362-728 genetically removed); amplified from P. furiosus genomic DNA (ATCC); numbers are database (intein-containing) numbers; A different construct (aa 252-361/729-1049) was used for the unwinding experiments and is not this molecule; also called PfMCMAAA; PfMCM-AAA; not shown: His6, N-terminal, cleaved; SUMO, N-terminal, …
B2: Sso-PfMCM chimera (Sulfolobus solfataricus MCM N-terminal domain fused to Pyrococcus furiosus MCM AAA+ ATPase domain) (enzyme, UniProt Q9UXG1 1-269, looked up)
chain: MEIPSKQIDYRDVFIEFLTTFKGNNNQNKYIERINELVAYRKKSLIIEFSDVLSFNENLAYEIINNTKIILPILEGALYDHILQLDPTYQRDIEKVHVRIVGIPRVIELRKIRSTDIGKLITIDGILVKVTPVKERIYKATYKHIHPDCMQEFEWPEDEEMPEVLEMPTICPKCGKPGQFRLIPEKTKLIDWQKAVIQERPEEVPSGQLPRQLEIILEDDLVDSARPGDRVKVTGILDIKQDSPVKRGSRAVFDIYMKVSSIEVSQKVLQELEISPEEEQIIKELAKRKDIVDAIVDSIAPAIYGYKEVKKGIALALFGGVSRKLPDGTRLRGDIHVLLVGDPGVAKSQILRYVANLAPRAIYTSGKSSSAAGLTAAAVRDEFTGGWVLEAGALVLADGGYALIDELDKMSDRDRSVIHEALEQQTISISKAGITATLNARTTVIAAANPKQGRFNRMKNPFEQIDLPPTLLSRFDLIFVLIDEPDDKIDSEVARHILRVRRGESEVVAPKIPHEILRKYIAYARKNIHPVISEEAMEEIEKYYVRMRKSVKKTKGEEEGIPPIPITARQLEALIRLSEAHARMRLSPIVTREDAREAIKLMEYTLKQIAMD
notes: SsoMCM N-terminal domain (SsoMCMN), Sulfolobus solfataricus MCM, aa 1-269; amplified from S. solfataricus genomic DNA (ATCC); PfMCM AAA+ domain (PfMCMAAA), Pyrococcus furiosus MCM, aa 257-361/729-966 = aa 257-966 with its intein (aa 362-728) genetically removed; lacks the C-terminal helix-turn-helix domain (aa 967-1049); numbers are database (intein-containing) numbers; Crystallised with Mg/ADP; …

How the values were obtained:
[1] = molecular target: the molecule itself; test: crystal structure; PfMCMAAA with Mg/ADP, hanging drop, 50 mM sodium cacodylate pH 6.0, 50 mM magnesium acetate, 30% MPD, 5% glycerol; space group P1, 16 monomers in the asymmetric unit; 3.80 Å
[2] = molecular target: the molecule itself; test: crystal structure; Sso-PfMCM with Mg/ADP, hanging drop, 100 mM HEPES pH 7.6, 350 mM MgCl2, 3% PEG 3350; space group P6_(3), hexamer on a crystallographic threefold axis; 2.70 Å

Protein	stoichiometry N [1]	stoichiometry N [2]
B1	16	–
B2	–	6
